Results reported in patent publication US20060115477A1 (Bristol-Myers Squibb, published 2006).

Molecular target: T1, neuropilin-1 (human, UniProt O14786 22-923)
T1 construct: whole, on cells; On intact cells in FACS and cell assays; pulled down from Triton X-100 lysate of HT1080 cells in the immunoprecipitation, identified as the full length form by MALDI peptide mass fingerprint; also called NP-1; VEGF165R
Experiment: competition FACS on HT1080 cells preincubated with VEGF165 (legend of FIG. 17)
Method: ScFv's were labeled with fluorescein isothiocyanate (Molecular Probes, # F-1906) according to the instructions of the manufacturer. HT1080 cells were preincubated with a control scFv, a NP-1-binding scFv's (e.g. scFv8, scFv13 or scFv22) (both at 25 μg/ml) or VEGF₁₆₅ (R&Dsystems, #293-VE/CF) ([…]) for 2 hours at 0° C. and the fluorescein labeled NP-1-binding scFv (5 μg/ml) was added for 30 min. at 0° C. Bound fluorescein labeled scFv were detected by flow cytometry and the geometric mean fluorescence intensity was recorded. In order to determine if NP-1-binding scFv has overlapping epitopes with VEGF and each other for binding to cell surface NP-1, a competition FACS with directly labeled scFv was performed. […] Furthermore, scFv8 and scFv24 have mutually overlapping epitopes whereas scFv13 has an epitope distinct from scFv8 and scFv24.

T1 sequence (O14786 22-923): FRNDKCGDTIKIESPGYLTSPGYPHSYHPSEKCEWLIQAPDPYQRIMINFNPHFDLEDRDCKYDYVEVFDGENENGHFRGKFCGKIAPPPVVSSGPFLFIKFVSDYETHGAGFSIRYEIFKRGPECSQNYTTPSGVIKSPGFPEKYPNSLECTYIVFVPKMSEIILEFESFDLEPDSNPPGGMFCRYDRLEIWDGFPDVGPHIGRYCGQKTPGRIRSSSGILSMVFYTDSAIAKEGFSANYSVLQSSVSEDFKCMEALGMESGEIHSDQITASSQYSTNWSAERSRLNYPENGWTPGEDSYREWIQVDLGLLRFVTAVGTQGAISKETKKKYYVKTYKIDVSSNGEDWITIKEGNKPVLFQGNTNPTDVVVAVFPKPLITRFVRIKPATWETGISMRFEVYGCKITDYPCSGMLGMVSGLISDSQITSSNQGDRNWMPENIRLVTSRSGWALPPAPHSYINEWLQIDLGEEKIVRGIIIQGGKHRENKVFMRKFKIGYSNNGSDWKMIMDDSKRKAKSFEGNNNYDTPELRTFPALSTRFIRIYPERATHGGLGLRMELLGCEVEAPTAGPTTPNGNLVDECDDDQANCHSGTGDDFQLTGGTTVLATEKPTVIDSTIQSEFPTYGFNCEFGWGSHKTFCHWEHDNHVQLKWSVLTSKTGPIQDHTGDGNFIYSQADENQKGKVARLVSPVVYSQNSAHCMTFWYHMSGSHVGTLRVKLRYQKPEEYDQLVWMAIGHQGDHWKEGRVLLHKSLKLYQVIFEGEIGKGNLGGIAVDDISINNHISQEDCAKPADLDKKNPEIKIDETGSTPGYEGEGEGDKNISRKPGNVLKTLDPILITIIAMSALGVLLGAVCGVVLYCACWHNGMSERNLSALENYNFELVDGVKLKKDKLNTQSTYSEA

B1: VEGF165 (R&Dsystems, #293-VE/CF) (ligand, human, UniProt P15692-4 27-191, looked up)
chain: APMAEGGGQNHHEVVKFMDVYQRSYCHPIETLVDIFQEYPDEIEYIFKPSCVPLMRCGGCCNDEGLECVPTEESNITMQIMRIKPHQGQHIGEMSFLQHNKCECRPKKDRARQENPCGPCSERRKHLFVQDPQTCKCSCKNTDSRCKARQLELNERTCRCDKPRR
notes: mature; also called recombinant human VEGF
  binding result: binds
